Data from publication PMC11933295, “Inhibiting hedgehog signal by a patched-1 antibody” (Cell Discovery, 2025).

Biological target: T1, engineered human PTCH1 protein (PTCH1*, a functional PTCH1 variant with two cytosolic loops truncated) (Homo sapiens, stabilised)
T1 chain: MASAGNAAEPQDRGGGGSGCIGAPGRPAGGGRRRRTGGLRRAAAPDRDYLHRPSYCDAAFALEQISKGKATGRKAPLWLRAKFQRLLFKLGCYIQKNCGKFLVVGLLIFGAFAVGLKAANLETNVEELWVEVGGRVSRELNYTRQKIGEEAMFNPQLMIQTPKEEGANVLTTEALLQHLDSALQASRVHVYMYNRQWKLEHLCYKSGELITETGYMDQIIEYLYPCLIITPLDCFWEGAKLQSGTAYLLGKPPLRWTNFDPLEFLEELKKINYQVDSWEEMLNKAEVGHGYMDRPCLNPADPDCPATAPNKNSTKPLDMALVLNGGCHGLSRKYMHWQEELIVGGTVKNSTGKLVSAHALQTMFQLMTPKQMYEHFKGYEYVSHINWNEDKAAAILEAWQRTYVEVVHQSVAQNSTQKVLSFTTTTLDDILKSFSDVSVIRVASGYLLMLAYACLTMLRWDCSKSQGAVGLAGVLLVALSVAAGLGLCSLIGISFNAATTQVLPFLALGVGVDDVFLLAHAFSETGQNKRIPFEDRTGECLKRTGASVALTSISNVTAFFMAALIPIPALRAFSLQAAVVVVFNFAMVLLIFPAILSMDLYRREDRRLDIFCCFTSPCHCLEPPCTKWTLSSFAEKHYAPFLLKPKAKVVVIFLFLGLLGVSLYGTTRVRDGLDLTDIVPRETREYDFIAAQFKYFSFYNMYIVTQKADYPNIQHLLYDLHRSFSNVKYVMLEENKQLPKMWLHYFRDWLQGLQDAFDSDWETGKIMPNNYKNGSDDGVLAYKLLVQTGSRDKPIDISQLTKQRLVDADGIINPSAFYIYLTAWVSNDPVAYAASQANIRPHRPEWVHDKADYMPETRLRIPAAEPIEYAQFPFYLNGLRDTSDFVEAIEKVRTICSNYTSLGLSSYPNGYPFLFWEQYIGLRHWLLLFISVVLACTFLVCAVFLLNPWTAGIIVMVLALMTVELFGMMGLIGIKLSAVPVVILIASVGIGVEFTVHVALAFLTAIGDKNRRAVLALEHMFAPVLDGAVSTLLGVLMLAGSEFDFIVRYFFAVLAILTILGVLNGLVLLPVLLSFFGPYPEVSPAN
Experiment: cell-based or functional assay

B1: Fab^6H3 (Fab, V domains shown)
VH: EVQLVESGGGLVKPGGSRKLSCVASGFTLSDYGMHWVRQAPEKGLEWVAYIGSDSYTIYHADTMKGRFTISRDNAKNTLFLQMTSLRSEDTAMYYCGRNYGMDYWGQGTS
VL: VLTQSPAIMSASLGERVTLTCTASSSVTSSYLHWYQQKPGSSPKLWIYSTSNLPFGVSPRFSGSGSGTSFSLTISSMEAEDAATYYCHQFHRSPYTFGGGTK
IC50 of the dose-dependent inhibition of HH signaling, Dual-Luciferase Reporter Assay in SHH-Light II cells; pair blocked: SHH with PTCH1: ~77.8 nM
